The source of these data is patent EP1659133.

Assay [1] addresses RSV F protein (C-terminal truncated) (respiratory syncytial virus, UniProt P03420). As to the kind of experiment: SPR. In general terms: SPR reads the build-up and loss of mass on a sensor chip optically.
Assay [2] concerns the target T1, RSV F protein from infected HEp2 cell lysate (respiratory syncytial virus, UniProt P03420). As to the kind of experiment: ELISA, apparent (unit printed as 10mm). For orientation: In an ELISA, binding on a coated surface is turned into a signal by an enzyme label.
Assay [3] deals with T1, RSV F protein from infected HEp2 cell …. The assay can be described thus: ELISA, apparent.

RSV F protein (C-terminal truncated), sequence (P03420 26-524): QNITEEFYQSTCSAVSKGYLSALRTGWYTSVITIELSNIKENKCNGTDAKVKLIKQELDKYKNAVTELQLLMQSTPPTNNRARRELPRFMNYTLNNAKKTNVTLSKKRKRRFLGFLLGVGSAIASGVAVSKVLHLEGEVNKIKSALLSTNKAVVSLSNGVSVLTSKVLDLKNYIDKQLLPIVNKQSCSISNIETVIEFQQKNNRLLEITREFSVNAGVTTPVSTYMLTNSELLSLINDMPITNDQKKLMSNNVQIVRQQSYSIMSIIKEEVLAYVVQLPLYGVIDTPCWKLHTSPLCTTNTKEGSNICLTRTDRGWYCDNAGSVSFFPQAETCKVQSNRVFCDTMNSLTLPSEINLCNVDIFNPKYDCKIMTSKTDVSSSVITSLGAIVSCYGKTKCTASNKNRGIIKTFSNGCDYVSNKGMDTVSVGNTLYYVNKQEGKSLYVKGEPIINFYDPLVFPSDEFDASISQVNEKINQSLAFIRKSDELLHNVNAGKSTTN
T1 sequence (P03420 26-524): as above

B1: M1308F (antibody, V domains shown)
VH: EVQLQQSGAELVRPGALVKLSCKASGFNIKDYYIYWVKQRPEQGLEWIGWIDPENGNTVFDPKFQGKASITSDTSSNTAYLQLSSLTSEDTAVYYCAYYGTSSFDFWGQGTTLTVSS
VL: DIKMTQSPSSMYVSLGERVTITCKASQDINRYLNWFQQKPGKSPKTLIHRANRLVDGVPSRFSGSGSGQEYSLTISSLEFEDMGIYYCLQFHEFPYTFGGGTKLEIK
B1 yielded a Kd in assay [1] of 1.1 nM.

B2: H1308F (antibody, V domains shown)
VH: QVQLVQSGAEVKKPGASVKVSCKASGFNIKDYYIYWVRQAPGQGLEWIGWIDPENGNTVFDPKFQGRVTMTRDTSTSTVYMELSSLRSEDTAVYYCAYYGTSSFDFWGQGTTLTVSS
VL: DIQMTQSPSTLSASVGDRVTITCKASQDINRYLNWYQQKPGKAPKLLIYRANRLVDGVPSRFSGSGSGTEFTLTISSLQPDDFATYYCLQFHEFPYTFGGGTKLEIK
In assay [1], B2 showed a Kd of 2.5 nM.

B3: CH1129 (M1129HuGamma1,Kappa) (antibody, V domains shown)
VH: QVELQESGPGILQPSQTLSLTCSFSGFSLSTSGMSVGWIRQPSGEGLEWLADIWWDDKKDYNPSLKSRLTISKDTSSNQVFLKITGVDTADTATYYCARSMITNWYFDVWGAGTTVTVSS
VL: DIQLTQSPAIMSASPGEKVTMTCSASSSVGYMHWYQQKSSTSPKLWIYDTSKLASGVPGRFSGSGSGNSYSLTISSIQAEDVATYYCFQGSGYPFTFGGGTKLEIK
As for B3, the Kd worked out at 10 nM in assay [2] and 1.5 nM in assay [1].

B4: M1129 (antibody, V domains shown)
VH: QVELQESGPGILQPSQTLSLTCSFSGFSLSTSGMSVGWIRQPSGEGLEWLADIWWDDKKDYNPSLKSRLTISKDTSSNQVFLKITGVDTADTATYYCARSMITNWYFDVWGAGTTVTVSS
VL: DIQLTQSPAIMSASPGEKVTMTCSASSSVGYMHWYQQKSSTSPKLWIYDTSKLASGVPGRFSGSGSGNSYSLTISSIQAEDVATYYCFQGSGYPFTFGGGTKLEIK
With B4, the Kd in assay [1] worked out at 11.4 nM.

B5: H1129 (humanized 1129) (antibody, V domains shown)
VH: QVTLRESGPALVKPSQTLTLTCSFSGFSLSTSGMSVGWIRQPSGKALEWLADIWWDDKKDYNPSLKSRLTISKDTSKNQVVLKVTNVDPADTATYYCARSMITNWYFDVWGAGTTVTVSS
VL: DIQMTQSPSTLSASVGDRVTITCKCQLSVGYMHWYQQKPGKAPKLWIYDTSKLASGVPSRFSGSGSGTEFTLTISSLQPDDFATYYCFQGSGYPFTFGGGTKLEIK
Turning to B5, the Kd in assay [3] was 0.7 nM; in assay [1], 1.4 nM.
